Drawing on the supplement of paper PMC10567573, this text covers protein stability index for 53 sequences.

± gives the standard deviation.

The data set can be described thus: protein stability index of a GFP-peptide fusion (GPS, HEK-293T) (PSI 1-6); higher = more stable. The note with it: c terminus: a fixed tail appended.
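Note: 24-mer peptide tiles fused after GFP, lentivirally expressed, FACS-sorted into six equal bins by GFP/DsRed ratio, decoded by Illumina sequencing, PSI is the read-weighted mean bin number.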

CYAAMKKKIYAMGGGSYGKLFESV [GAN]: the protein stability index is 2.16 ± 0.39 (treatment: DMSO) and 2.23 ± 0.45 (treatment: MLN4924 1 uM, 8 h).

Regarding CYKGHKEIAQYLLEKGADVNRKSV [FEM1C], the protein stability index is, setting by setting: (treatment: DMSO) 3.1 ± 0.14; (treatment: MLN4924 1 uM, 8 h) 3.38 ± 0.18.

For the sequence DAASLRRQIIKLNRRLQLLEEENK [MFF], the protein stability index worked out at 3.35 ± 0.19 (treatment: DMSO) and 3.68 ± 0.55 (treatment: MLN4924 1 uM, 8 h).

With DCLQLIADSETPTIQKGSYTFVPW [TNFSF13B], the protein stability index turned out to be 2.19 ± 0.28 (treatment: DMSO) and 2.2 ± 0.18 (treatment: MLN4924 1 uM, 8 h).

With DDGRLLEYDTVTREVKVLLDQLRF [APMAP], the protein stability index came out at 2.62 ± 0.2 (treatment: DMSO) and 3.05 ± 0.38 (treatment: MLN4924 1 uM, 8 h).

As for DEEVSGSSKTITAEIPDGPPVVAH [C18orf25], the protein stability index by setting is: (treatment: DMSO) 5.35 ± 0.25; (treatment: MLN4924 1 uM, 8 h) 5.41 ± 0.22.

For the sequence DFGSNCRFSHMSERDLQELSIQVE [ZMAT5], the protein stability index (treatment: DMSO) is 3.05 ± 0.49 and the protein stability index (treatment: MLN4924 1 uM, 8 h) came to 2.91 ± 0.28.

Take DGAWCAGRNDLQQWIEVDARRLTR [CPXM2]: the protein stability index was determined as 3.48 ± 0.35 (treatment: DMSO) and 3.95 ± 0.52 (treatment: MLN4924 1 uM, 8 h).

Regarding DGLLGDNQIMPKTGFLIIILAIIA [MAGEA6], the protein stability index by setting is: (treatment: DMSO) 2.86 ± 0.65; (treatment: MLN4924 1 uM, 8 h) 2.12 ± 0.46.

In the case of DGRFEKRQGNPSWKKQQKCDECGK [ZNF396], the protein stability index runs as follows: (treatment: DMSO) 5.03 ± 0.2; (treatment: MLN4924 1 uM, 8 h) 5.2 ± 0.11.

Take DIKNPEITTNRFYGPQVNNISHTK [WASL]: the protein stability index is, setting by setting: (treatment: DMSO) 3.19 ± 0.26; (treatment: MLN4924 1 uM, 8 h) 3.48 ± 0.41.

For DIYILPSDNSGQVSPPESPTVTTS [BCL2L13], the protein stability index was 4.58 ± 0.27 (treatment: DMSO) and 4.5 ± 0.15 (treatment: MLN4924 1 uM, 8 h).

As for DKDKSDDRMARPSGRSGHNTRGTG [CSNK1G3], the protein stability index reads like this: (treatment: DMSO) 5.6 ± 0.29; (treatment: MLN4924 1 uM, 8 h) 5.43 ± 0.52.

For the sequence DKLKIDLLPDGRHAVVEVEDVPLA [TAF7L], the protein stability index is 4.61 ± 0.15 (treatment: DMSO) and 4.8 ± 0.24 (treatment: MLN4924 1 uM, 8 h).

As for DKPLPPPPPGSLSRTQEPSLGKQK [SOAT2], the protein stability index was 5.27 ± 0.28 (treatment: DMSO) and 5.41 ± 0.21 (treatment: MLN4924 1 uM, 8 h).

On to DLDLIQSTPFKPLALKTPPRVLTL [MFF], for which the protein stability index runs as follows: (treatment: DMSO) 2.31 ± 0.3; (treatment: MLN4924 1 uM, 8 h) 2.36 ± 0.34.

Consider DLKQALPCVAESPTVHVEVHQRGS [TRIP13], for which the protein stability index came out at 4.51 ± 0.31 (treatment: DMSO) and 4.57 ± 0.11 (treatment: MLN4924 1 uM, 8 h).

As for DLLHNVSQNIAAETRAEDPPWFEG [DFFB], the protein stability index is, setting by setting: (treatment: DMSO) 3.753 ± 0.011; (treatment: MLN4924 1 uM, 8 h) 3.85 ± 0.13.

Consider DLVFVIDGSKSLGEENFEVVKQFV [MATN2], for which the protein stability index was 2.38 ± 0.35 (treatment: DMSO) and 2.44 ± 0.49 (treatment: MLN4924 1 uM, 8 h).

On to DMKPITVGGKIVGSLCAIAGVLTI [KCNA4], for which the protein stability index runs as follows: (treatment: DMSO) 2.88 ± 0.57; (treatment: MLN4924 1 uM, 8 h) 3.11 ± 0.32.

As to DNEDYPLFRELWRYHFATGVWHQM [KLHDC10], the protein stability index is, setting by setting: (treatment: DMSO) 2 ± 0.76; (treatment: MLN4924 1 uM, 8 h) 2.03 ± 0.46.

With DNLLLDAKGHVKLSDFGLCTGLKK [STK38L], the protein stability index (treatment: DMSO) worked out at 3.12 ± 0.1 and the protein stability index (treatment: MLN4924 1 uM, 8 h) is 3.38 ± 0.44.

As for DNRCKLFDSPSLCSSSTRSVLKRP [CDC25A], the protein stability index by setting is: (treatment: DMSO) 3.48 ± 0.2; (treatment: MLN4924 1 uM, 8 h) 3.64 ± 0.28.

DNSPTSNSLEGGTDATAFWWGEWT [ADAMTSL2] came in with a protein stability index (treatment: DMSO) of 3.62 ± 0.35.

Sequence DPQSGELPSERWNPTQNVRTILLS [CDC34] registered a protein stability index (treatment: DMSO) of 3.31 ± 0.35 and a protein stability index (treatment: MLN4924 1 uM, 8 h) of 3.62 ± 0.43.

Regarding DQVSACIPVFRLARRRKKILFYCH [ALG2], the protein stability index by setting is: (treatment: DMSO) 2.22 ± 0.47; (treatment: MLN4924 1 uM, 8 h) 2.24 ± 0.075.

As to DRDMFFKICESLNVPVDDSLVKEL [EFHC1], the protein stability index reads like this: (treatment: DMSO) 3.22 ± 0.29; (treatment: MLN4924 1 uM, 8 h) 3.3 ± 0.18.

Take DRLEEQLPWLSLRALKFRERDALE [DNAAF3]: the protein stability index reads like this: (treatment: DMSO) 3.4 ± 0.24; (treatment: MLN4924 1 uM, 8 h) 3.42 ± 0.19.

In the case of DRYSEGIKHVLQTFGPIPEFSRAT [CRYL1], the protein stability index reads like this: (treatment: DMSO) 3.06 ± 0.58; (treatment: MLN4924 1 uM, 8 h) 3.36 ± 0.3.

Sequence DSFLVALDMDDGTLSFIVDGQYMG [SPSB1] displayed a protein stability index (treatment: DMSO) of 2.64 ± 0.63 and a protein stability index (treatment: MLN4924 1 uM, 8 h) of 2.74 ± 0.41.

DSGQNAWLSYRLLKASEPGLFAVG [PCDHGA10] yielded a protein stability index (treatment: DMSO) of 2.14 ± 0.09 and a protein stability index (treatment: MLN4924 1 uM, 8 h) of 2.13 ± 0.063.

In the case of DSMPQDLSEALKEATKEVHTQAEN [HMOX1], the protein stability index is, setting by setting: (treatment: DMSO) 5.39 ± 0.26; (treatment: MLN4924 1 uM, 8 h) 5.51 ± 0.19.

For the sequence DSSSSCSDHCITSSDMMDSSSFSN [VDR], the protein stability index reads like this: (treatment: DMSO) 4.94 ± 0.28; (treatment: MLN4924 1 uM, 8 h) 5.01 ± 0.27.

On to DTERLDDFHLSIHSDMAAIVKAMA [DVL3], for which the protein stability index amounted to 2.36 ± 0.2 (treatment: DMSO) and 2.49 ± 0.25 (treatment: MLN4924 1 uM, 8 h).

On to DTVTEVTARMEMLIEELYAFMPAR [CBY2], for which the protein stability index by setting is: (treatment: DMSO) 2.38 ± 0.25; (treatment: MLN4924 1 uM, 8 h) 2.47 ± 0.48.

Regarding DVARQLGKNNEFSRLVAGEYLSFF [PSD2], the protein stability index is 2.26 ± 0.16 (treatment: DMSO) and 2.27 ± 0.44 (treatment: MLN4924 1 uM, 8 h).

For the sequence DVCISILHPPVDDPQSGELPSERW [CDC34], the protein stability index is, setting by setting: (treatment: DMSO) 3.9 ± 0.28; (treatment: MLN4924 1 uM, 8 h) 4.01 ± 0.24.

With DVHDDVRLLSDATVEKDESHAGKV [FAM50A], the protein stability index (treatment: DMSO) was found to be 5.52 ± 0.26 and the protein stability index (treatment: MLN4924 1 uM, 8 h) is 5.43 ± 0.23.

Consider DVPDLQSVCSCTCYRSQDYGGRSV [KCNK9], for which the protein stability index amounted to 2.5 ± 0.36 (treatment: DMSO) and 2.81 ± 0.67 (treatment: MLN4924 1 uM, 8 h).

For DVTADSKVLEALKLKGAEVTYMNM [PLD5], the protein stability index is 3.57 ± 0.21 (treatment: DMSO) and 3.44 ± 0.29 (treatment: MLN4924 1 uM, 8 h).

As to DYAHGFGNISGEFWLGNEALHSLT [TNXB], the protein stability index is 2.43 ± 0.73 (treatment: DMSO) and 2.82 ± 0.57 (treatment: MLN4924 1 uM, 8 h).

As to DYELEDETRPAKRITITESNMKSR [WEE1], the protein stability index turned out to be 4.74 ± 0.35 (treatment: DMSO) and 5.16 ± 0.29 (treatment: MLN4924 1 uM, 8 h).

Take DYKDRSVFGVPLTVNVQRTGQPLP [DLC1]: the protein stability index stood at 3.62 ± 0.069 (treatment: DMSO) and 3.52 ± 0.17 (treatment: MLN4924 1 uM, 8 h).

As for DYSFLSLGVYSALREIAFTRQLHE [ATE1], the protein stability index reads like this: (treatment: DMSO) 2.99 ± 1.3; (treatment: MLN4924 1 uM, 8 h) 2.68 ± 0.94.

As for EALLDRESENASLREKLRLREAEI [LRRC45], the protein stability index came to 4.77 ± 0.26 (treatment: DMSO) and 4.89 ± 0.083 (treatment: MLN4924 1 uM, 8 h).

Turning to ECHIVVLTDDDVVDWDEEYPPQMG [BTBD10], the protein stability index reads like this: (treatment: DMSO) 3.34 ± 0.29; (treatment: MLN4924 1 uM, 8 h) 3.73 ± 0.42.

In the case of EDAHLTQYKKEPVTTRQVRTIVEE [KRT17], the protein stability index worked out at 5.01 ± 0.37 (treatment: DMSO) and 5.01 ± 0.19 (treatment: MLN4924 1 uM, 8 h).

Take EDGEKAAREVKLLLLGAGESGKST [GNAI1]: the protein stability index (treatment: DMSO) was 4.78 ± 0.25 and the protein stability index (treatment: MLN4924 1 uM, 8 h) came to 5.28 ± 0.19.

EDLLAKEKDNSRRMLTDKEREMAE [LMNB1] had a protein stability index (treatment: DMSO) of 5.6 ± 0.31 and a protein stability index (treatment: MLN4924 1 uM, 8 h) of 5.65 ± 0.28.

For EDSESLRIKEVEHMTRHLEESEKA [LRRC45], the protein stability index runs as follows: (treatment: DMSO) 5.5 ± 0.23; (treatment: MLN4924 1 uM, 8 h) 5.51 ± 0.2.

As for EDSVFEERPERRSGPPASYCAKLC [C8orf76], the protein stability index by setting is: (treatment: DMSO) 4.44 ± 0.29; (treatment: MLN4924 1 uM, 8 h) 4.6 ± 0.07.

On to EEDLQSQSETQGLEGAQAPLAVEE [MAGEA10], for which the protein stability index worked out at 5.73 ± 0.14 (treatment: DMSO) and 5.75 ± 0.089 (treatment: MLN4924 1 uM, 8 h).

Take EEDNELNLPNLAAAYSSILSSLGE [GCH1]: the protein stability index runs as follows: (treatment: DMSO) 3.68 ± 0.31; (treatment: MLN4924 1 uM, 8 h) 3.73 ± 0.16.
